From the nanobody polyreactivity screen of Harvey et al. (2022)

Assay: yeast display, Sf9 membrane polyspecificity reagent, FACS + sequencing; frameworks hold sequencing errors
Method in brief: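 Galactose induction of a Saccharomyces cerevisiae BJ5465 synthetic nanobody display library ran 36–48 hours. The cells were then stained for 1 hour at 4 °C with 10% biotinylated, detergent-solubilized Sf9 membrane reagent, pulled down on streptavidin microbeads and FACS-sorted into low and high (top ~1%) gates on expression and reagent-binding fluorescence. Labels for polyreactivity follow the gate of origin.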

Sequence | polyreactivity (PSR sort gate)
QVQLVESGGGLVQAGGSLRLSCAASGRIFYYNAMGSYRQAPGKESELVAAIRRSGSRTYYADSVKGRFTISRDNSKNTVSLEMNSLKPEDTAVYYCAAKYASFAHHDSWGQGTQVTVSS | high polyreactivity
QVQLVESGGGLVQAGGSLRLSCAASGRIFYYNAMGWYRPAPGKERELVATITGSGGSTYYADSVKGRFTISRDNAKNTVYLQMNSLKPEDTAVYYCNATRWYYDFYKLDYWGQGTKVTVSS | low polyreactivity
QVQLVESGGGLVQAGGSLRLSCAASGRIFYYNAMGWYRQAPGKERELVAAIRGGGSTNYADSVKGRFTISRDNAKNTVYLQMNSLKPEDTAVYYCAAPWTQILDYWGQGTQVTVSS | low polyreactivity
QVQLVESGGGLVQAGGSLRLSCAASGRIFYYNAMGWYRQAPGKESELVAAIRYSGGSTSYADSVKGRFTISRDNAKNTVYLQMNSLKPEDTAVYYCAASTSNRWKLNYWGQGTQVTVSS | high polyreactivity
QVQLVESGGGLVQAGGSLRLSCAASGRIFYYNTMGWYRQAPGKERELVAAITRSGGSTYYADSVKGRFTISRDNAKNTVYLQMNSLKPEDTAVYYCAAQRRYDTADHGYWGQGTQVTVSS | high polyreactivity
QVQLVESGGGLVQAGGSLRLSCAASGRIFYYYAMGWYRQAPGKERELVAAISAGGGRTYYADSVKGRFTISRDNAKNTVYLQMNSLKPEDTAVYYCAVGRRIPGKYTSFGYWGQGTQVTVSS | high polyreactivity
QVQLVESGGGLVQAGGSLRLSCAASGRIFYYYAMGWYRQAPGKERELVAAITWSGVNTYYADSVKGRFTISRDNAKNTVYLQMNSLKPEDTAVYYCATDTGYPYSYDLYDSYYWGQGTQVTVSS | low polyreactivity
QVQLVESGGGLVQAGGSLRLSCAASGRIFYYYAMGWYRQAPGKERELVAGIDSGDSTNYADSVKGRFTISRDNAKNTVYLQMNSLKPEDTAVYYCAALHYGGYFSYYPYYYWGQGTQVTVSS | low polyreactivity
QVQLVESGGGLVQAGGSLRLSCAASGRIFYYYAMGWYRQAPGKERELVATISSSGGSTYYADSVRGRFTISRDNAKNTVYLQMNSLKPEDTAVYYCAARVPLWSRGRTTWPKSQYEYWGQGTQVTVSS | high polyreactivity
QVQLVESGGGLVQAGGSLRLSCAASGRIFYYYAMGWYRQAPGKERELVATITTTGNTYYADSVKGRFTISRDNAKNTVYLQMNSLKPEDTAVYYCNAGWDLVYGYYPRRKNFDYWGQRTQVTVSS | high polyreactivity
QVQLVESGGGLVQAGGSLRLSCAASGRIFYYYAMGWYRQAPGKESELVAAISGGGGRTYYADSVKGRFTISRDNAKHTVYLQMNSLKPEDTAVYYCNADYFYRTVNQRYDYWGQGTQVTVSS | high polyreactivity
QVQLVESGGGLVQAGGSLRLSCAASGRIFYYYDMGWNRQAPGQERELVAAISFSDGITYYADSVKGRFTISRDNAKNTVYLQMNSLKPEDTAVYYCAAVYRYRNRREYDYWGQGTEVTVSS | high polyreactivity
QVQLVESGGGLVQAGGSLRLSCAASGRIGYYAMGWYRQAPGKERELVATISRGGSTKYADSVKGRFTISRDNAKNTVYLQMNSLKPEDTAVYYCAAARAPRYDYWGQGTQVTVSS | high polyreactivity
QVQLVESGGGLVQAGGSLRLSCAASGRIIAYYAMGWYRQAPGKERELVAAISRRGGSTYYADSVKGRFTISRDNAKNTVYLQMNSLKPEDTAVYYCDTLTLESFSALYYWGQGTQVTVSS | low polyreactivity
QVQLVESGGGLVQAGGSLRLSCAASGRIIDRNAMGWYRQAPGKERELFAAISSSGSTNYADSVKGRFTISRDNAKNTVYLQMNSLKPEDTAVYYCAARWRYVLAAGTRPVSFDYWGQGTQVTVSS | low polyreactivity
QVQLVESGGGLVQAGGSLRLSCAASGRIIEYYAMGWYRQAPGKERELVAAISSGGSTYYADSVKGRFTISRDNAKNTVYLQMNSLKPEDTAVYYCNTRYVYTRGGPLKRDYWGQGTQVTVSS | high polyreactivity
QVQLVESGGGLVQAGGSLRLSCAASGRIIGAYAMGWYRQAPGKERELVARISWSGGTTYYADSVKGRFTISRDNAKNTVYLQMDSLKPEDTAVYYCAARYSYYVTGGISKYDYWGQGTQVSVSS | low polyreactivity
QVQLVESGGGLVQAGGSLRLSCAASGRIIGNNAMGWYRHAPGKERELVATISSRGGSTYYAESVKGRFTISRDNAKNTVYFQMNSLKPEDTAVYYCKAYTTLAYDLDYWGQGTQVTVSS | high polyreactivity
QVQLVESGGGLVQAGGSLRLSCAASGRIIGYYAMGWYRQAPGKERELGAAITRGGSTNYADSVKGRFTISRDNAKNTVYLQMNSLKPEDTAVYYCAADLARYGKRYDYWGQGTQVTVSS | low polyreactivity
QVQLVESGGGLVQAGGSLRLSCAASGRIIPGNAMGWYRQAPGKERELVAAISWGGGSTYYADSVKGRFTISRDNAKNTVYLQMNSLKPEDTAVYYCNAGVSIGRSRRYDYWGQGTQVTVSS | low polyreactivity

Sequence | polyreactivity (PSR sort gate)
QVQLVESGGGLVQAGGSLRLSCAASGRIIQYNAMGWYRQAPGKERELVAAISWRSRRTYYADSVKGRFTISRDNAKNTVYIQMNSLKPEDTAVYYCAATSRTSWYGYWGQGTQVTVSS | high polyreactivity
QVQLVESGGGLVQAGGSLRLSCAASGRIIRDNAMGWYRQAPGKERELVAAISRRGGSTYYADSVKGRFTISRDNAKNTVYLQMNSRKPEDTAVYYCNKTTHSRTFRYDYWGQGTQVTVSS | low polyreactivity
QVQLVESGGGLVQAGGSLRLSCAASGRIIRPYAMGWYRQAPGKERDFVATIRFTTGRTYYADSVKGRFTISRDNAKNTVYLQMNSLKPDDTAVYYCAADFAFVNYAKISYTTHDYWGQGTQVTVSS | high polyreactivity
QVQLVESGGGLVQAGGSLRLSCAASGRIIRQYAMGWYRKAPGKERELVAVISAGGARTYYADSVKGRFTISRDNAKNTVYLQMNSLKPEDTEVYYCAAELPTSQYDYYYWGQGTQVTVSS | high polyreactivity
QVQLVESGGGLVQAGGSLRLSCAASGRIISINAMVWYRQAPGKERELVAAINSGGSTHYADSVKGRFTISRDNAKNTVYLQMNSLKPEDTAVYYCAARKTVSYFRVRTFDYWGQGTQVTVSS | low polyreactivity
QVQLVESGGGLVQAGGSLRLSCAASGRIISRYAMGWYRQAPGKERELVAAISRRGGSTYYADSVKGRFTISRDNAKNTVYLQMNSLKPEDTAVYYCAAVRRKTAGGLEDYWGQGTQVTVSS | high polyreactivity
QVQLVESGGGLVQAGGSLRLSCAASGRIISSYAMVWYRQAPGKETELVAAISWDGGSTYYADSVKGRFTISRDNANNTVYLQMNSLKPEDTAVYYCATDATRPWYDYWGQGTQVTVSS | low polyreactivity
QVQLVESGGGLVQAGGSLRLSCAASGRIISYNAMGWYRQAPAKERELVAAISWGGGSTYYADSVKGRFTISRDTAKNTVYLQMNSLKPEDTAVSYCAKGWYRIKRNDYWGQGTQVTVSS | low polyreactivity
QVQLVESGGGLVQAGGSLRLSCAASGRIISYNAMGWYRQAPGKERELVAAISWGGGSTYYADSVKGRFTISRDNAKNTVYLQLNSLKPEDTAVYYCAKGWYRIKRNDYWGQGTQVTVSS | low polyreactivity
QVQLVESGGGLVQAGGSLRLSCAASGRIITEYVTGCYTQAPGKERELDAAAITRGGSTNYADSVKGRFTLSRDNAKNTVYLQKNSLIPEDTAVYHCNKDDWPVSRQLYTGKHDSWGQGTQVTVSS | low polyreactivity
QVQLVESGGGLVQAGGSLRLSCAASGRIITKYTMGWYRQAPGKERELFAAISRSDRTNYADSVKGRFTISRDNAKNTVYLQMNSLKPEDTAVYYCNARHSYWTGRRVTDDYDYRGQGTQVTVSS | high polyreactivity
QVQLVESGGGLVQAGGSLRLSCAASGRIITRYTMGWYRQAPGKERELVASITSSGSSTYYADSVKGRFTISRDNAKNTFYLQMNSLKPEDTAVYYCAARSRLRYLYDYWGQGTQVTVSS | high polyreactivity
QVQLVESGGGLVQAGGSLRLSCAASGRIIVDNTMGWYRQAPGQEREFVAVITSGGSTNYADSVKGRYTISRDNAKNTVYLQMNCLNPEDTAVYYCATEPGGYRFDDRPFQFGYWGQGTQVTVSS | low polyreactivity
QVQLVESGGGLVQAGGSLRLSCAASGRIIVNNAMGWYRQAPGKERELVAAITRRGGSTYYADSVKGRFTISRDNAKNTVYLQMNSLKPEDTAVYYCARSNQRTVYVASDYWGQGTQVTVSS | high polyreactivity
QVQLVESGGGLVQAGGSLRLSCAASGRIIWKNTMGWYRQAPGKERELVAAITYGGSTNYADSVKGRFTISRDNAKNTVYLQMNSLKPEDTAVYYCNAQISWDSGWGYSYHLDYWGQGTQVTVSS | low polyreactivity
QVQLVESGGGLVQAGGSLRLSCAASGRIIYKNAMGWYRQAPGKERELVAAITSSGGSTYYADSVKGRFTISRDNAKNTVYLQMNSLKPEDTAVYYCAAYAYGRFGKLNYWGQGTQVTVSS | low polyreactivity
QVQLVESGGGLVQAGGSLRLSCAASGRIIYPNAIGWYRQAPGKERELVAGITSRGGSTYYADSVKGRFTSSRDNAKNTVYLQMNSLKPEDTAVYYCAKRYYYFYPDYDYWGQGTQVTVSS | high polyreactivity
QVQLVESGGGLVQAGGSLRLSCAASGRIIYSNAMGWYRQAHGKERELVASISPNTGTTYYADSVKGRFTISLDNAKNTVYLQMNSLKPEDTAVYYCAARGGYYQDGLVTGEAEYGYWGQGTQVTVSS | low polyreactivity
QVQLVESGGGLVQAGGSLRLSCAASGRIKDNVMGWYRQAPGKERELVAAITRSAGRTYYADSVKGRFTISRDNAKNTVYLQMNSLKPEDTAVYYCAAQAERYGYEYWGQGTQVTVSS | low polyreactivity
QVQLVESGGGLVQAGGSLRLSCAASGRILAGYAMGWYRQAPGKERELVAVISVGTGSTYYADSVKGRFTISRDNAKNTVYLQMNSLKPEDTAVYYCAAVTAITSLRMGYWGQGTQVTVSS | low polyreactivity
